The source of these data is patent publication US20210210159A1, “COMPUTATIONAL PROTEIN DESIGN USING TERTIARY OR QUATERNARY STRUCTURAL MOTIFS” (Trustees of Dartmouth College, priority 2018, published 2021).

A short description of series [1]: Chemical denaturation by guanidinium hydrochloride (GuHCl), chromophore absorbance at 587 nm. The following applies: compared with original mCherry. Format: physicochemical. The text has this: Degree of foldedness was monitored via chromophore absorbance at 587 nm. Because the chromophore rapidly […], this constitutes a sensitive metric of structure. Data are fit to the Hill equation, with the concentration of half denaturation noted in the legend.
Thus, by all measures, the designed protein, which differs from the original mCherry in 48 positions, preserved the starting structure and even function.

Series [2] in a line: Fast Protein Liquid Chromatography / size-exclusion chromatography, oligomeric state. Format: physicochemical. The following applies: concentration of at least 10 μM. The text has this: Based on the standards, the dimeric protein would be expected to elute at the volume indicated by a dotted line, which eliminates the possibility of design oligomerization.
On the technique in general: In gel filtration, larger molecules generally elute earlier.

B1: design: TERM-based surface-redesigned mCherry, 48 of 64 variable surface positions changed (SEQ ID NO. 2) (protein)
chain: MVSKGEEDNMAIIKEFMTFEVEMEGTVNGHPFRIRGSGGGDPYEGTQTARLEVVEGGPLPFAWDILSPQFMYGSKAYVKHPADIPDYLKLSFPEGFTWTRTMEFEDGGTVKVTQTSTLKDGKFHYKVKLTGSNFPSDGPVMQKKTMGWEASTERMRPKDGKLEGEIDQELRLKDGGYYRARVRTTYKAKKPVQLPGAYTVRIRLEITSHNEDYTEVEQTETAKGEHSTGGMDELYK
modifications: TERM-based designed sequence
As for B1, the “protection of chromophore on chemical denaturation” value in series [1] was “approximately as well as the original mCherry”. For the same molecule, the “oligomeric state in solution” value in series [2] is recorded as “monomeric”.
